The target of the experiment is SPT6 (human, UniProt Q7KZ85 1-1726). The experiment in a line: cell-based or functional assay.

The values that follow come from PMC12572195 (Nature Communications, 2025).

B1: SETD2 (residues 1446-2564) (domain or fragment)
chain: GPSCVMDDFRDPQRWKECAKQGKMPCYFDLIEENVYLTERKKNKSHRDIKRMQCECTPLSKDERAQGEIACGEDCLNRLLMIECSSRCPNGDYCSNRRFQRKQHADVEVILTEKKGWGLRAAKDLPSNTFVLEYCGEVLDHKEFKARVKEYARNKNIHYYFMALKNDEIIDATQKGNCSRFMNHSCEPNCETQKWTVNGQLRVGFFTTKLVPSGSELTFDYQFQRYGKEAQKCFCGSANCRGYLGGENRVSIRAAGGKMKKERSRKKDSVDGELEALMENGEGLSDKNQVLSLSRLMVRIETLEQKLTCLELIQNTHSQSCLKSFLERHGLSLLWIWMAELGDGRESNQKLQEEIIKTLEHLPIPTKNMLEESKVLPIIQRWSQTKTAVPPLSEGDGYSSENTSRAHTPLNTPDPSTKLSTEADTDTPKKLMFRRLKIISENSMDSAISDATSELEGKDGKEDLDQLENVPVEEEEELQSQQLLPQQLPECKVDSETNIEASKLPTSEPEADAEIEPKESNGTKLEEPINEETPSQDEEEGVSDVESERSQEQPDKTVDISDLATKLLDSWKDLKEVYRIPKKSQTEKENTTTERGRDAVGFRDQTPAPKTPNRSRERDPDKQTQNKEKRKRRSSLSPPSSAYERGTKRPDDRYDTPTSKKKVRIKDRNKLSTEERRKLFEQEVAQREAQKQQQQMQNLGMTSPLPYDSLGYNAPHHPFAGYPPGYPMQAYVDPSNPNAGKVLLPTPSMDPVCSPAPYDHAQPLVGHSTEPLSAPPPVPVVPHVAAPVEVSSSQYVAQSDGVVHQDSSVAVLPVPAPGPVQGQNYSVWDSNQQSVSVQQQYSPAQSQATIYYQGQTCPTVYGVTSPYSQTTPPIVQSYAQPSLQYIQGQQIFTAHPQGVVVQPAAAVTTIVAPGQPQPLQPSEMVVTNNLLDLPPPSPPKPKTIVLPPNWKTARDPEGKIYYYHVITRQTQWDPPTWESPGDDASLEHEAEMDLGTPTYDENPMKASKKPKTAEADTSSELAKKSKEVFRKEMSQFIVQCLNPYRKPDCKVGRITTTEDFKHLARKLTHGVMNKELKYCKNPEDLECNENVKHKTKEYIKKYMQKFGAVYKPKEDTELE
As to B1, the “co-transcriptional methylation assay (3H activity) with SETD2 Construct 4 (includes the complete SBR, lacks the SRI domain)” value was ~50 % of WT.
